Test results: patent US10100129B2, “Antibodies against CD73 and uses thereof” (BRISTOL-MYERS SQUIBB COMPANY, priority 2014, dated 2018)

T1: CD32a-H131 (FcgRIIa-H131) (Homo sapiens, UniProt P12318)
T1 sequence (P12318 34-217 limits assumed): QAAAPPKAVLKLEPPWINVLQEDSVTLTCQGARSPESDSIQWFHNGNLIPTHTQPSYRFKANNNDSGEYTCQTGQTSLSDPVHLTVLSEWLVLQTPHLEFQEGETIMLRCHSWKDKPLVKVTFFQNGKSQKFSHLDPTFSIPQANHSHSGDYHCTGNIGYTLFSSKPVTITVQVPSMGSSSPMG

T2: CD32a-R131 (FcgRIIa-R131) (Homo sapiens, UniProt P12318, H167R)
T2 sequence (P12318 34-217 H167R limits assumed): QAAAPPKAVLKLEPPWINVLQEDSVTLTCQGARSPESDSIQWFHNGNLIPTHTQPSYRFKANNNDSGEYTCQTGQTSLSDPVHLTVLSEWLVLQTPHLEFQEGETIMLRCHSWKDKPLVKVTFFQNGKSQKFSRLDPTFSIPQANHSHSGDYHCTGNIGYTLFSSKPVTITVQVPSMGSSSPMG

T3: CD32b (FcgRIIb) (Homo sapiens, UniProt P31994)
T3 sequence (P31994 43-310): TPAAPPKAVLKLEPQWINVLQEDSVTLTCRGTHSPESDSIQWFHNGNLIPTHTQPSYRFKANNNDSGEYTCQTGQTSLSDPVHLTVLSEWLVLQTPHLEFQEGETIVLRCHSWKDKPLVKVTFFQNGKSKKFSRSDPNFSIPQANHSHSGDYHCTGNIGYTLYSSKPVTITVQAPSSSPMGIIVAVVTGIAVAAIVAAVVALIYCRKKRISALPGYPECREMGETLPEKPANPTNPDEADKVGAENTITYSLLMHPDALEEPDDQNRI

B1: IgG2.3G1-AY-V27: IgG2.3G1-AY constant region with S267E (protein)
chain: ASTKGPSVFPLAPCSRSTSESTAALGCLVKDYFPEPVTVSWNSGALTSGVHTFPAVLQSSGLYSLSSVVTVPSSNFGTQTYTCNVDHKPSNTKVDKTVERKSCVECPPCPAPELLGGPSVFLFPPKPKDTLMISRTPEVTCVVVDVEHEDPEVKFNWYVDGVEVHNAKTKPREEQYNSTYRVVSVLTVLHQDWLNGKEYKCKVSNKALPAPIEKTISKAKGQPREPQVYTLPPSREEMTKNQVSLTCLVKGFYPSDIAVEWESNGQPENNYKTTPPVLDSDGSFFLYSKLTVDKSRWQQGNVFSCSVMHEALHNHYTQKSLSLSPGK
modifications: Synthetic: IgG2.3G1-AY-V27
notes: IgG2.3G1-AY constant region with S267E
B2: IgG2.3plusTHT: modified IgG2.3 constant region construct (protein)
chain: ASTKGPSVFPLAPCSRSTSESTAALGCLVKDYFPEPVTVSWNSGALTSGVHTFPAVLQSSGLYSLSSVVTVPSSNFGTQTYTCNVDHKPSNTKVDKTVERKSCVETHTCPPCPAPPVAGPSVFLFPPKPKDTLMISRTPEVTCVVVDVSHEDPEVQFNWYVDGVEVHNAKTKPREEQFNSTFRVVSVLTVVHQDWLNGKEYKCKVSNKGLPAPIEKTISKTKGQPREPQVYTLPPSREEMTKNQVSLTCLVKGFYPSDIAVEWESNGQPENNYKTTPPMLDSDGSFFLYSKLTVDKSRWQQGNVFSCSVMHEALHNHYTQKSLSLSPGK
modifications: Synthetic: IgG2.3-plusTHT
notes: modified IgG2.3 constant region construct
B3: IgG2.5plusTHT: modified IgG2.5 constant region construct (protein)
chain: ASTKGPSVFPLAPSSRSTSESTAALGCLVKDYFPEPVTVSWNSGALTSGVHTFPAVLQSSGLYSLSSVVTVPSSNFGTQTYTCNVDHKPSNTKVDKTVERKCCVETHTCPPCPAPPVAGPSVFLFPPKPKDTLMISRTPEVTCVVVDVSHEDPEVQFNWYVDGVEVHNAKTKPREEQFNSTFRVVSVLTVVHQDWLNGKEYKCKVSNKGLPAPIEKTISKTKGQPREPQVYTLPPSREEMTKNQVSLTCLVKGFYPSDIAVEWESNGQPENNYKTTPPMLDSDGSFFLYSKLTVDKSRWQQGNVFSCSVMHEALHNHYTQKSLSLSPGK
modifications: Synthetic: IgG2.5-plusTHT
notes: modified IgG2.5 constant region construct
B4: IgG2.3plusGGG: modified IgG2.3 constant region construct (protein)
chain: ASTKGPSVFPLAPCSRSTSESTAALGCLVKDYFPEPVTVSWNSGALTSGVHTFPAVLQSSGLYSLSSVVTVPSSNFGTQTYTCNVDHKPSNTKVDKTVERKSCVEGGGCPPCPAPPVAGPSVFLFPPKPKDTLMISRTPEVTCVVVDVSHEDPEVQFNWYVDGVEVHNAKTKPREEQFNSTFRVVSVLTVVHQDWLNGKEYKCKVSNKGLPAPIEKTISKTKGQPREPQVYTLPPSREEMTKNQVSLTCLVKGFYPSDIAVEWESNGQPENNYKTTPPMLDSDGSFFLYSKLTVDKSRWQQGNVFSCSVMHEALHNHYTQKSLSLSPGK
modifications: Synthetic: IgG2.3-plusGGG
notes: as for B2
B5: mAb13-IgG2.5 (protein)
constant: ASTKGPSVFPLAPSSRSTSESTAALGCLVKDYFPEPVTVSWNSGALTSGVHTFPAVLQSSGLYSLSSVVTVPSSNFGTQTYTCNVDHKPSNTKVDKTVERKCCVECPPCPAPPVAGPSVFLFPPKPKDTLMISRTPEVTCVVVDVSHEDPEVQFNWYVDGVEVHNAKTKPREEQFNSTFRVVSVLTVVHQDWLNGKEYKCKVSNKGLPAPIEKTISKTKGQPREPQVYTLPPSREEMTKNQVSLTCLVKGFYPSDIAVEWESNGQPENNYKTTPPMLDSDGSFFLYSKLTVDKSRWQQGNVFSCSVMHEALHNHYTQKSLSLSPGK
modifications: left off: another chain or arm of the molecule
B6: mAb7-IgG2.3G1-AY-V27 (protein)
constant: ASTKGPSVFPLAPCSRSTSESTAALGCLVKDYFPEPVTVSWNSGALTSGVHTFPAVLQSSGLYSLSSVVTVPSSNFGTQTYTCNVDHKPSNTKVDKTVERKSCVECPPCPAPELLGGPSVFLFPPKPKDTLMISRTPEVTCVVVDVEHEDPEVKFNWYVDGVEVHNAKTKPREEQYNSTYRVVSVLTVLHQDWLNGKEYKCKVSNKALPAPIEKTISKAKGQPREPQVYTLPPSREEMTKNQVSLTCLVKGFYPSDIAVEWESNGQPENNYKTTPPVLDSDGSFFLYSKLTVDKSRWQQGNVFSCSVMHEALHNHYTQKSLSLSPGK
modifications: left off: another chain or arm of the molecule
B7: mAb7-IgG2.5G1-AY-V27 (protein)
constant: ASTKGPSVFPLAPSSRSTSESTAALGCLVKDYFPEPVTVSWNSGALTSGVHTFPAVLQSSGLYSLSSVVTVPSSNFGTQTYTCNVDHKPSNTKVDKTVERKCCVECPPCPAPELLGGPSVFLFPPKPKDTLMISRTPEVTCVVVDVEHEDPEVKFNWYVDGVEVHNAKTKPREEQYNSTYRVVSVLTVLHQDWLNGKEYKCKVSNKALPAPIEKTISKAKGQPREPQVYTLPPSREEMTKNQVSLTCLVKGFYPSDIAVEWESNGQPENNYKTTPPVLDSDGSFFLYSKLTVDKSRWQQGNVFSCSVMHEALHNHYTQKSLSLSPGK
modifications: left off: another chain or arm of the molecule
B8: mAb8-IgG2.5G1-AY-V27 (protein)
constant: ASTKGPSVFPLAPSSRSTSESTAALGCLVKDYFPEPVTVSWNSGALTSGVHTFPAVLQSSGLYSLSSVVTVPSSNFGTQTYTCNVDHKPSNTKVDKTVERKCCVECPPCPAPELLGGPSVFLFPPKPKDTLMISRTPEVTCVVVDVEHEDPEVKFNWYVDGVEVHNAKTKPREEQYNSTYRVVSVLTVLHQDWLNGKEYKCKVSNKALPAPIEKTISKAKGQPREPQVYTLPPSREEMTKNQVSLTCLVKGFYPSDIAVEWESNGQPENNYKTTPPVLDSDGSFFLYSKLTVDKSRWQQGNVFSCSVMHEALHNHYTQKSLSLSPGK
modifications: left off: another chain or arm of the molecule

Assays:
human FcγRs = assay: SPR binding profile to human FcγRs (panel)
Experimental: Binding of the constructs to human FcγRs was measured via SPR. hCD64 and hCD32a-H131 binding data for IgG1.1 and IgG2 molecules were consistent with expected values for the different Fcs. IgG1.1f is the most inert Fc.
(§1) The binding of antibodies to Fc gamma receptors (FcγRs or FcgRs) was studied using biosensor technologies including Biacore surface plasmon resonance (SPR) and Fortebio Biolayer Interferometry (BLI). SPR studies were performed on a Biacore T100 instrument (GE Healthcare) at 25° C. The Fab fragment from a murine anti-6×His antibody was immobilized on a CM5 sensor chip using EDC/NHS to a density of ˜3000 RU. Various his-tagged FcgRs (7 ug/ml) were captured via the C-terminal his-tag using a contact time of 30 s at 10 ul/min, and the binding of 1.0 μM antibody was evaluated in a running buffer of 10 mM NaPO4, 130 mM NaCl, 0.05% p20 (PBS-T) pH 7.1. FcgRs used for these experiments included CD64 (FcgRI), CD32a-H131 (FcgRIIa-H131), CD32a-R131 (FcgRIIa-R131), CD32b (FcgRIIb), CD16a-V158 (FcgRIIIa-V158), CD16b-NA1 (FcgRIIIb-NA1), and CD16B-NA2 (FcgRIIIb-NA2). BLI experiments were performed on a Fortebio Octet RED instrument (Pall, Fortebio) at 25° C. in 10 mM NaPO4, 130 mM NaCl, 0.05% p20 (PBS-T) pH 7.1. Antibodies were captured out of undiluted expression supernatants on protein A coated sensors, followed by the binding of 1 μM hCD32a-H131, hCD32a-R131, hCD32b, hCD16a-V158, or 0.1 μM hCD64 analytes.
This engineering strategy was further explored by producing other antibodies formatted with IgG2.3G1-AY, IgG2.3G1-AY-S267E (IgG2.3G1-AY-V27), as well as IgG2-B-form variants (IgG2.5G1-AY and IgG2.5G1-AY-V27), and other hybrid antibodies containing different combinations of IgG1 and IgG2 constant domains, and testing the binding of these antibodies to anti-his Fab captured his-tagged FcgRs using Biacore SPR technology.

CD64 (FcgRI) = CD64 (FcgRI) (Homo sapiens, UniProt P12314); assay: SPR binding of 1.0 μM antibody to anti-his Fab captured FcgR-his: CD64
CD64 (FcgRI), sequence (P12314 16-374): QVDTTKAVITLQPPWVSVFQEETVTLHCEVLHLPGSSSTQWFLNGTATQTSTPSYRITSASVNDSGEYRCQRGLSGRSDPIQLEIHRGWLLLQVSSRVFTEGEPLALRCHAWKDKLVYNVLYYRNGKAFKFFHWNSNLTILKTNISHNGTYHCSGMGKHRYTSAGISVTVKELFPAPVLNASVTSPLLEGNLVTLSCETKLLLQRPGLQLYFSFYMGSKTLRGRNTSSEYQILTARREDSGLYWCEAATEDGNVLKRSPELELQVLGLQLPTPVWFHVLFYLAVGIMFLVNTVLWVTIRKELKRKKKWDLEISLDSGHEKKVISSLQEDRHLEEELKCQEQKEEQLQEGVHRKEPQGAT
Experimental: as §1

[1] = molecular target: T1, CD32a-H131 (FcgRIIa-H131); assay: SPR binding to FcgR-his: CD32a-H131; conditions: 1 μM antibody, anti-his Fab captured FcgR-his
Experimental: as §1

[2] = molecular target: T2, CD32a-R131 (FcgRIIa-R131); assay: SPR binding to FcgR-his: CD32a-R131; conditions: 1 μM antibody, anti-his Fab captured FcgR-his
Experimental: as §1

CD32b (FcgRIIb) = molecular target: T3, CD32b (FcgRIIb); assay: SPR binding to FcgR-his: CD32b; conditions: 1 μM antibody, anti-his Fab captured FcgR-his
Experimental: as §1

[3] = molecular target: CD16a-V158 (FcgRIIIa-V158) (Homo sapiens, UniProt P08637, F176V); assay: SPR binding to FcgR-his: CD16a-V158; conditions: 1 μM antibody, anti-his Fab captured FcgR-his
CD16a-V158 (FcgRIIIa-V158), sequence (P08637 17-208 F176V limits assumed): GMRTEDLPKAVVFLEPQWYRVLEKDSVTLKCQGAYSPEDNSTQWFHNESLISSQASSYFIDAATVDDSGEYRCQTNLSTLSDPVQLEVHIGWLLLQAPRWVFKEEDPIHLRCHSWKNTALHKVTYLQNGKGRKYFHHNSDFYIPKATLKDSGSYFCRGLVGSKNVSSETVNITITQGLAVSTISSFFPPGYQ
Experimental: as §1

CD16B-NA2 (FcgRIIIb-NA2) = CD16B-NA2 (FcgRIIIb-NA2) (Homo sapiens, UniProt O75015); assay: SPR binding to FcgR-his: CD16B-NA2; conditions: 1 μM antibody, anti-his Fab captured FcgR-his
CD16B-NA2 (FcgRIIIb-NA2), sequence (O75015 17-200 limits assumed): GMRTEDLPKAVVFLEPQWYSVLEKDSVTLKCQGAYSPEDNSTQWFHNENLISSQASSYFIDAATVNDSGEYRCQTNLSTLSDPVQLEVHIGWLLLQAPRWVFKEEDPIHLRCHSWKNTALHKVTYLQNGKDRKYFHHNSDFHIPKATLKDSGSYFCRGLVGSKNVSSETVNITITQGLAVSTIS
Experimental: as §1

| Molecule | FcgR binding properties by SPR (in words) (human FcγRs) | % Rmax, binding to hCD64 (CD64 (FcgRI)) | % Rmax, binding to hCD32a-H131 [1] | % Rmax, binding to hCD32a-R131 [2] | % Rmax, binding to hCD32b (CD32b (FcgRIIb)) | % Rmax, binding to hCD16a-V158 [3] | % Rmax, binding to hCD16B-NA2 (CD16B-NA2 (FcgRIIIb-NA2)) |
| --- | --- | --- | --- | --- | --- | --- | --- |
| B1 | comparable FcgR binding properties to IgG1f and IgG1f-S267E, respectively | – | – | – | – | – | – |
| B2 | unable to retain IgG1f-like FcgR binding properties | – | – | – | – | – | – |
| B3 | unable to retain IgG1f-like FcgR binding properties | – | – | – | – | – | – |
| B4 | unable to retain IgG1f-like FcgR binding properties | – | – | – | – | – | – |
| B5 | – | −2% | 39% | 4% | −2% | 0% | −2% |
| B6 | – | 84% | 68% | 92% | 76% | 26% | 7% |
| B7 | – | 81% | 74% | 89% | 84% | 32% | 9% |
| B8 | – | 77% | 76% | 79% | 77% | 33% | 10% |
